By Ki is commonly meant the equilibrium dissociation constant of an inhibitor or competing ligand from its target. As usually defined, the IC50 is the midpoint of a concentration-inhibition curve. A low value points to greater potency in that assay.

In experiment [1] the test system is KLK5-mediated PAR2 activation. Kind of experiment: PAR2-dependent intracellular calcium mobilization assay in N/TERT keratinocytes. The format is cell-based. Conditions: peptide 400 μM. From the text: PAR2, a member of the G-protein-coupled receptor family expressed in keratinocytes, is a known downstream target of KLK5. KLK5 activates PAR2 by cleaving its extracellular N-terminal domain. This cleavage exposes a tethered ligand, which binds PAR2 intramolecularly to activate the receptor. , Activated PAR2 causes protein kinase C (PKC) and inositol 1,4,5-trisphosphate (IP3) activation, leading to calcium release from the endoplasmic reticulum, known as intracellular calcium mobilization. […] This delay is attributed to the time required for KLK5 to enzymatically cleave the extracellular N-terminal domain of PAR2, thereby exposing the tethered ligand sequence necessary to initiate receptor activation and downstream calcium signaling. […] This observation confirmed PAR2-dependent calcium mobilization and that rKLK5 could initiate PAR2 activation. The inhibition potential of lead 7 on KLK5 activity was then assessed by using this assay. rKLK5 was preincubated with lead 7 at concentrations of 2.5, 5, 20, or 40 μM for one hour before being applied to cultured keratinocytes, after which PAR2-dependent calcium mobilization was measured.
For Ki calculation, Km values for KLK5 and its substrate Boc-VPR-AMC were previously reported in the literature 8, 9, allowing the conversion from IC50 to Ki using the Cheng Prusoff equation10 Kᵢ = IC₅₀ / (1 + [S]/Kₘ) for single-site competitive binding.
Cell lines and tissue cultures
Keratinocytes isolated from the skin in a patient with genetic skin disease Netherton Syndrome (NS19) and in healthy donors (C42, C46, P8) were used in the study. […]
The immortalized keratinocyte cell line (N/TERT)13, 14 were used for the assay. […] The cells were counted, and 100 µL of the suspension, at a density of 600,000 cells/mL, was seeded into each well of a 96 -well microplate. […]
calcium signalling. […] Fluorescence excitation was set at 485 nm, and emission was recorded at 520 nm using SpectraMax® i3x plate reader. […]
(Calcium flux is commonly read through the fluorescence of an indicator in the cells.)

In experiment [2] the target is T1, KLK7 (Homo sapiens, UniProt P49862). Also on record: purchased R&D Systems 2624-SE. The conditions noted are these: read-out: Ki against KLK7; cited from earlier work.
Target sequence in this assay (P49862 30-253): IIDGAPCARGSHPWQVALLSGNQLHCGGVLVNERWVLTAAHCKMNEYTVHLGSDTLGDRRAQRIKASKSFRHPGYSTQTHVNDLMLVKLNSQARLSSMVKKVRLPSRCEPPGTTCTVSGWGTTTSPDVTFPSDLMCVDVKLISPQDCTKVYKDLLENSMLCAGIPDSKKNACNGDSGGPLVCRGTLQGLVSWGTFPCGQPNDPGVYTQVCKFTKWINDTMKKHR
For experiment [3], the target named is T2, KLK5 (Homo sapiens, UniProt Q9Y337).
T2 construct: purchased R&D Systems 1108-SE
T2 sequence (Q9Y337 23-293): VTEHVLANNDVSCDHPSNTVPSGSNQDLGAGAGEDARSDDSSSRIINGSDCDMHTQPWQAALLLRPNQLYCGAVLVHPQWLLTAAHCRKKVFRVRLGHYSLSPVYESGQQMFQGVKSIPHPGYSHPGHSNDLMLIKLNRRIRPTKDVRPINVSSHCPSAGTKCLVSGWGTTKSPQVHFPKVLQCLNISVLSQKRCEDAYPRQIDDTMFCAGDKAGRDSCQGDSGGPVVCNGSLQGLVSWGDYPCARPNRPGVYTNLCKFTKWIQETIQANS
The conditions noted are these: prior findings, reference not given; read-out: Ki against KLK5; cited from earlier work.

The target in experiment [4] is T1, KLK7. Kind of experiment: enzyme inhibition assay (fluorogenic substrate); selectivity: inhibition of KLK7, KLK8 or KLK14 activity by the peptide, n = 3; substrates and conditions in the Supporting Information.
The target in experiment [5] is T3, Kallikrein-related peptidase 5 (KLK5) (UniProt Q9Y337 23-293). The experiment can be described thus: enzyme inhibition assay (fluorogenic substrate); inhibition of KLK5 activity by the peptide, fluorogenic substrate Boc-VPR-AMC, n = 3; conditions in the Supporting Information. Conditions: both partners purified.
Experiment [6] deals with T3, Kallikrein-related peptidase 5 (KLK5). The experiment is described as above. Conditions: both partners purified. This is another data set of the same source.
In experiment [7] the target is T4, KLK8 (UniProt O60259 33-260).
T4 construct: Kallikrein 8 (KLK8); construct and source are in the Supporting Information
T4 sequence (looked up): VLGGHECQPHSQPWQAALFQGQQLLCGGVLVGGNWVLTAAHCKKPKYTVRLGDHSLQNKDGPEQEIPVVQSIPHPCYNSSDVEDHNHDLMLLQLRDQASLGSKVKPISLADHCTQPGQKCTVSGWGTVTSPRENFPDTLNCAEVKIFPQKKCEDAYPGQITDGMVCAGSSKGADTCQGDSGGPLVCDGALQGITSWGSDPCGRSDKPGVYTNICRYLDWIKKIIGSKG
Kind of experiment: enzyme inhibition assay (fluorogenic substrate); selectivity: inhibition of KLK7, KLK8 or KLK14 activity by the peptide, n = 3; substrates and conditions in the Supporting Information. The conditions noted are these: both partners purified.

Experiment [8] deals with T5, KLK14 (UniProt Q9P0G3).
T5 sequence (Q9P0G3 41-267, species assumed, looked up): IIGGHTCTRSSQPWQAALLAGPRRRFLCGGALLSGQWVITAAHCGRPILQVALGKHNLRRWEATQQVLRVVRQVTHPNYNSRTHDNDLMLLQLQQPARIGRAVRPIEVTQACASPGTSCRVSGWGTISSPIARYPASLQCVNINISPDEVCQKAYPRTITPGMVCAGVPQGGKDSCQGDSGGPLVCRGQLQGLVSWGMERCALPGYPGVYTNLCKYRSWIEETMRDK
The experiment is described as above.

Bridge positions count the residues as written; N and C are the ends. Ends that are not written are not given here.

Take LRGILS-NH2 [R-AP, reference compound]: the “calcium mobilization on stimulation of keratinocytes” value in experiment [1] is on record as “did not induce calcium mobilization”.
Same read-out and setting: the entry for SLIGRL-NH2 [AP, reference compound] is “PAR2-dependent calcium mobilization was observed”.
Take “α1-antichymotrypsin [reference compound]”: the Ki in experiment [2] is 500 nM.

B1: LEKTI Domain 5: domain 5 of the endogenous serine protease inhibitor LEKTI (protein)
chain: REIVKLCSQYQNQAKNGILFCTRENDPIRGPDGKMHGNLCSMCQAYFQAENEEKKKAEARAR
modifications: Kazal-type disulfides
On to B1, for which the Ki in experiment [3] was 32.8 nM.

B2: LEKTI Domain 6: domain 6 of the endogenous serine protease inhibitor LEKTI (protein)
chain: ESGKATSYAELCNEYRKLVRNGKLACTRENDPIQGPDGKVHGNTCSMCEVFFQAEEEEKKKKEGESRN
modifications: Kazal-type disulfides
For the molecule B2, the inhibition constant Ki in experiment [3] was 83.3 nM.

B3: SFTI analogue 8 (peptide)
peptide: cyclo(GFCHRSYPPECWPN)
modifications: disulfide 3-11 (inferred)
notes: SFTI scaffold grafted with residues of a LEKTI or LEKTI-like domain, glutamic acid at position 10; also called compound 8; source: synthetic peptide (hydrazide peptide, cyclised via native chemical ligation, oxidised, RP-HPLC purified)
Regarding B3, the figures for the IC50 in experiment [4], in experiment [6] and in experiment [7] were above 1000 nM, 8.6 ± 2 nM and above 1000 nM, respectively. Also, the Ki in experiment [5] turned out to be 8 nM.

B4: LEKTI-grafted SFTI analogue, lead 7 (peptide)
peptide: cyclo(GFCTRSNPPECWPN)
modifications: disulfide 3-11 (inferred)
notes: SFTI scaffold grafted with residues of a LEKTI domain, glutamic acid at position 10; source: synthetic peptide (hydrazide peptide, cyclised via native chemical ligation, oxidised, RP-HPLC purified)
In the case of B4, the IC50 in experiment [8] was above 1000 nM; in experiment [4], above 1000 nM; in experiment [6], 14 ± 4 nM; in experiment [7] it was above 1000 nM. Moreover, the affinity in experiment [5], expressed as Ki, was 11 nM.

The values above are taken from publication PMC12670400, “LEKTI-Grafted Sunflower Trypsin Inhibitor: A Potential Therapeutic for Skin Diseases” (Journal of Medicinal Chemistry, 2025).
